In patent US20030215899A1, “Reversible oxidation of protein tyrosine phosphatases” (CEPTYR, Inc., priority 2002, published 2003):
“Also recorded” adds a separate entry of the source.

T1: 70 kDa PTP (SHP-2) (Rattus norvegicus, UniProt P41499)
T1 construct: endogenous in cells; host or cells: Rat-1 fibroblasts
T1 sequence (P41499 1-593): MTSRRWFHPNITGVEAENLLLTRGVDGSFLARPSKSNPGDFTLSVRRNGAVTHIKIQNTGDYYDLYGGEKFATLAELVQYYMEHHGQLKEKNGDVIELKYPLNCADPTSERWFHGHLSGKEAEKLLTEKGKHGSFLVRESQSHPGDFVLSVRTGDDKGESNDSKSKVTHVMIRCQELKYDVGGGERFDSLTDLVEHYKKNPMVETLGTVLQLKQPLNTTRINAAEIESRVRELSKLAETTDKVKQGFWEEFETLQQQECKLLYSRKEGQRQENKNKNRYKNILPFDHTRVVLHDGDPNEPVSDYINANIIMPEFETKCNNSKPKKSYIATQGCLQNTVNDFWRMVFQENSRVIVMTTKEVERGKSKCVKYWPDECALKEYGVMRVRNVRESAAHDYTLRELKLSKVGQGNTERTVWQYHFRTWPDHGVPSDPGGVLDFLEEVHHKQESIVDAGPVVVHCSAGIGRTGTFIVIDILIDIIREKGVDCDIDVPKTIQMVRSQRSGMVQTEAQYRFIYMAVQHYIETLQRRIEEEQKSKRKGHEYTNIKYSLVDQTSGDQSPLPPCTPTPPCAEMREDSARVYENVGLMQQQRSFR


Assays:
MAPK = test: anti-phospho-MAPK / anti-MAPK immunoblot; type: cell-based, Rat; settings: peptide growth factors, Rat-1 cells
Experimental: For immunoprecipitation, cells were rinsed with ice-cold PBS, then lysed in ice-cold 20 mM Hepes (pH 7.5), 1% NP-40, 150 mM NaCl, 10% glycerol, 200 μM […] and protease inhibitors (25 μg/ml of aprotinin and leupeptin). […] The anti-pTyr antibody G104 was described previously (Garton et al., 1997 Oncogene 15, 877-885). Anti-PDGFRββ antibody (Ab-X) was a gift from Dr. Daniel DiMaio at Yale University (Irusta and DiMaio, 1998 EMBO J. 17, 6912-6923). Anti-human G-CSF receptor (G-CSFR) antibody was provided by Dr. Toshio Hirano at Osaka University, Japan (Fukada et al., 1996 Immunity 5, 449-460). Lysate (400 μg) was incubated with 5 μg of antibody conjugated to protein A/G-Sepharose (Amersham Pharmacia, Arlington Heights, Ill.) for 2 hours at 4° C. For immunoblotting, aliquots of total lysates (30 μg per sample) or immunoprecipitates were subjected to SDS-PAGE and transferred to nitrocellulose filters, which were incubated with appropriate primary and secondary antibodies and the specific signals were visualized by the ECL detection system (Amersham Pharmacia).

[1] = test system: intracellular ROS in Rat-1 cells; test: ROS-induced DCF fluorescence (microscopy, flow cytometry); type: cell-based; settings: 20 μM CM-H2DCFDA, growth factor 50 ng/ml, 10 mins
Experimental: The effects of H2O2 and t-BHP on inactivation of PTPs and activation of MAPK signaling pathways were next compared in a cellular context. Intracellular ROS were measured using 2′,7′-dichlorofluorescein diacetate (H2DCFDA) and 5-(and-6)-chloromethyl-2′,7′-dichlorodihydrofluorescein diacetate (CM-H2DCFDA) (all fluorescent ROS indicators from Molecular Probes, Eugene, Oreg.) either by fluorescence microscopy, using a Zeiss Axiovert 405M inverted microscope equipped with a fluorescence attachment and digital camera, or by cell sorting, using a FACSCalibur System ([…].), according to the manufacturer's recommendations. […] Images of ROS-induced DCF fluorescence are shown at magnification 400× (FIG. 3B upper panel). Cells (1×10^5) that underwent the same treatment as above were harvested and resuspended in Hanks' solution, then immediately subjected to flow cytometric analysis to measure ROS-induced DCF fluorescence. The basal peak indicates background fluorescence, whereas the rightward shifted peak indicates ROS-induced DCF fluorescence (FIG. 3B, lower panels). […]
Rat-1 cells were incubated with 20 μM CM-H2DCFDA in the dark for 20 mins, then exposed to peptide growth factors (50 ng/ml) for an additional 10 mins. Images of ROS-induced DCF fluorescence are shown at 50× magnification. […]

70 kDa PTP (SHP-2) = molecular target: T1, 70 kDa PTP (SHP-2); test: modified in-gel PTP assay, growth factor stimulated Rat-1 cells; type: cell-based
Description: To determine whether ROS stimulated intracellular tyrosine phosphorylation through the oxidation and inhibition of cellular PTPs, a modified in-gel PTP activity assay was devised, as follows: As substrate, poly (4:1) Glu-Tyr (Sigma) was labeled with [γ-^32P]-ATP using the GST-FER fusion PTK, as described previously (Shen et al., 1998 J. Biol. Chem. 273:6474-81). The labeled substrates were used within three weeks to limit the variation of its specific activity from experiment to experiment. The lysis buffer (25 mM CH3COONa, 1% NP-40, 150 mM NaCl, 10% glycerol, pH 5.5) was degassed at 4° C. for overnight, before catalase and superoxide dismutase (both 100 μg/ml), protease inhibitors and 10 mM iodoacetic acid (IAA) were added. Following stimulation, cells were lysed under anaerobic conditions in an argon chamber. Lysates (25 μg) were processed as described herein and an “in-gel” phosphatase assay (Burridge and Nelson, 1995) was conducted using SDS-PAGE gels containing a radioactively-labeled substrate (1.5×10^6 cpm/20 ml gel solution, approximately 2 μM p-Tyr).
Cells were triggered with the appropriate stimulus and harvested under anaerobic conditions in lysis buffer containing IAA. Those PTPs that had not encountered ROS in the cell became irreversibly inactivated by alkylation of their active site Cys with IAA. However, in contrast, any PTPs in which the active site Cys had been oxidized in response to the stimulus were resistant to alkylation. For the “in-gel” phosphatase assay, a 10% SDS-PAGE gel was cast containing a radioactively-labeled substrate. An aliquot of cell lysate was subjected to SDS-PAGE and proteins in the gel were sequentially denatured, then renatured in the presence of reducing reagents. […] The reaction was then terminated by fixing, staining and destaining the gel. Finally the gel was dried and exposed to film. […]
As described above, treatment of Rat-1 cells with H2O2 led to inactivation of multiple PTPs (FIGS. 2-3). […] Lysates of PDGF-stimulated Rat-1 cells were then analyzed using the modified in-gel PTP activity assay described above. […]

| oxidation of SHP-2 (70 kDa PTP (SHP-2); Rat-1 cells transfected with Y1009F mutant G-CSFR/PDGFR chimeric receptor) | Molecule | activation of MAPK (MAPK) | production of intracellular ROS [1] | oxidation and inhibition of SHP-2 (70 kDa PTP (SHP-2); peptide growth factors, lysis with 10 mM IAA) | oxidation and inactivation of SHP-2 (70 kDa PTP (SHP-2); Rat-1 cells transfected with WT G-CSFR/PDGFR chimeric receptor) |
| --- | --- | --- | --- | --- | --- |
|  | EGF: peptide growth factor (protein, UniProt P01133 23-1207, looked up, Pro-epidermal growth factor) Pro-epidermal growth factor: PQHWSCPEGTLAGNGNSTCVGPAPFLIFSHGNSIFRIDTEGTNYEQLVVDAGVSVIMDFHYNEKRIYWVDLERQLLQRVFLNGSRQERVCNIEKNVSGMAINWINEEVIWSNQQEGIITVTDMKGNNSHILLSALKYPANVAVDPVERFIFWSSEVAGSLYRADLDGVGVKALLETSEKITAVSLDVLDKRLFWIQYNREGSNSLICSCDYDGGSVHISKHPTQHNLFAMSLFGDRIFYSTWKMKTIWIANKHTGKDMVRINLHSSFVPLGELKVVHPLAQPKAEDDTWEPEQKLCKLRKGNCSSTVCGQDLQSHLCMCAEGYALSRDRKYCEDVNECAFWNHGCTLGCKNTPGSYYCTCPVGFVLLPDGKRCHQLVSCPRNVSECSHDCVLTSEGPLCFCPEGSVLERDGKTCSGCSSPDNGGCSQLCVPLSPVSWECDCFPGYDLQLDEKSCAASGPQPFLLFANSQDIRHMHFDGTDYGTLLSQQMGMVYALDHDPVENKIYFAHTALKWIERANMDGSQRERLIEEGVDVPEGLAVDWIGRRFYWTDRGKSLIGRSDLNGKRSKIITKENISQPRGIAVHPMAKRLFWTDTGINPRIESSSLQGLGRLVIASSDLIWPSGITIDFLTDKLYWCDAKQSVIEMANLDGSKRRRLTQNDVGHPFAVAVFEDYVWFSDWAMPSVMRVNKRTGKDRVRLQGSMLKPSSLVVVHPLAKPGADPCLYQNGGCEHICKKRLGTAWCSCREGFMKASDGKTCLALDGHQLLAGGEVDLKNQVTPLDILSKTRVSEDNITESQHMLVAEIMVSDQDDCAPVGCSMYARCISEGEDATCQCLKGFAGDGKLCSDIDECEMGVPVCPPASSKCINTEGGYVCRCSEGYQGDGIHCLDIDECQLGEHSCGENASCTNTEGGYTCMCAGRLSEPGLICPDSTPPPHLREDDHHYSVRNSDSECPLSHDGYCLHDGVCMYIEALDKYACNCVVGYIGERCQYRDLKWWELRHAGHGQQQKVIVVAVCVVVLVMLLLLSLWGAHYYRTQKLLSKNPKNPYEESSRDVRSRRPADTEDGMSSCPQPWFVVIKEHQDLKNGGQPVAGEDGQAADGSMQPTSWRQEPQLCGMGTEQGCWIPVSSDKGSCPQVMERSFHMPSYGTQTLEGGVEKPHSLLSANPLWQQRALDPPHQMELTQ | activated MAPK to a similar extent | ROS production was not detected | not following exposure of these cells to EGF or FGF; also recorded: not by EGF or FGF |  |
| did not induce oxidation of SHP-2 | G-CSF: ligand of the G-CSFR/PDGFR chimeric receptors (protein, UniProt P09919 31-207, looked up) Granulocyte …: TPLGPASSLPQSFLLKCLEQVRKIQGDGAALQEKLVSECATYKLCHPEELVLLGHSLGIPWAPLSSCPSQALQLAGCLSQLHSGLFLYQGLLQALEGISPELGPTLDTLQLDVADFATTIWQQMEELGMAPALQPTQGAMPAFASAFQRRAGGVLVASHLQSFLEVSYRVLRHLAQP |  |  |  | rapid oxidation and inactivation of SHP-2 |
